According to paper PMC10812501, “Repurposing Glutathione Transferases: Directed Evolution Combined with Chemical Modification for the Creation of a Semisynthetic Enzyme with High Hydroperoxidase Activity” (Antioxidants, 2023):
Where a chain is given by its changes, count along the chain named. In names and notes the source's numbering stands.

Key:
[1] = substrate: CC(C)(OO)c1ccccc1; experiment: steady-state kinetics, coupled glutathione reductase/NADPH hydroperoxidase assay; type: biochemical, Glycine max; conditions: GSH 1.0 mM fixed, sodium phosphate 50 mM pH 7.0, 1 mM EDTA
Source text: steady-state kinetics, coupled glutathione reductase/NADPH hydroperoxidase assay on GmGSTU4-4

[2] = substrate: CC(C)(OO)c1ccccc1; experiment: as above; type: biochemical, Glycine max; conditions: Sh14 shuffled variant, GSH 1.0 mM fixed, sodium phosphate 50 mM pH 7.0, 1 mM EDTA

B1: GmGSTU4-4 (Glycine max) (protein)
chain: MSDEVVLLDFWPSPFGMRVRIALAEKGIKYEYKEEDLRNKSPLLLQMNPVHKKIPVLIHNGKPICESLIAVQYIEEVWNDRNPLLPSDPYQRAQTRFWADYVDKKIYDLGRKIWTSKGEEKEAAKKEFIEALKLLEEQLGDKTYFGGDNLGFVDIALVPFYTWFKAYETFGTLNIESECPKFIAWAKRCLQKESVAKSLPDQQKVYEFIMDLRKKLGIE
notes: dimer; Sh14 = shuffled variant differing by four point changes (R38Q/Q46K/W114C/I183V)
Km [1]: 454.3 ± 83.6 µM
kcat [1]: 10.7 ± 1.0 min⁻¹

B2: GmGSTU4-4 (Glycine max; I183V/Q46K/R38Q/W114C) (protein)
chain: B1 chain with R38Q, Q46K, W114C, I183V
notes: as for B1
Km [2]: 255.8 ± 46.4 µM
kcat [2]: 35.6 ± 3.7 min⁻¹
